From the supplement of paper PMC7877785
± gives the uncertainty stated by the source.

Assay: self-splicing fitness, log relative to wild type (ln ratio); higher = more splicing; Tetrahymena group I intron in knt gene, E. coli kanamycin selection, DiMSum; sequences stand for … in CUCUCU…GGAGGGAAAAGUUAUCAGGCAUGCACCUGGUAGCUAGUCUUUAAACCAAUAGAUUGCAUCGGUUUAAAAGGCAAGACCGUCAAAUUGCGGGAAAGGGGUCAACAGCCGUUCAGUACCAAGUCUCAGGGGAAACUUUGAGAUGGCCUUGCAAAGGGUAUGGUAAUAAGCUGACGGACAUGGUCCUAACCACGCAGCCAAGUCCUAAGUCAACAGAUCUUCUGUUGAUAUGGAUGCAGUUCACAGACUAAAUGUCGGUCGGGGAAGAUGUAUUCUUCUCAUAAGAUAUAGUCGGACCUCUCCUUAAUGGGAGCUAGCGGAUGAAGUGAUGCAACACUGGAGCCGCUGGGAACUAAUUUGUAUGCGAAAGUAUAUUGAUUAGUUUUGGAGUACUCGUGGUCG
Outline: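 Colonies from six replicate transformations of E. coli BL21(DE3) were pooled and amplicon-sequenced on an Illumina HiSeq 2500. The library placed an intron with all eight P1ex-region nucleotides randomised inside the knt kanamycin-resistance gene on pET-22b(+), and cells grew overnight at 37°C or 30°C on LB agar with or without 25 μg/mL kanamycin (plus 100 μg/mL carbenicillin, 50 μM IPTG, 0.2% rhamnose). Fitness is the DiMSum error-weighted combination of wild-type-normalised replicate fold changes, kanamycin versus none.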

Sequence | self-splicing fitness (ln) (30 °C) | self-splicing fitness (ln) (37 °C)
CCCCAGCAAUAUUACGUCUG | -3.45 ± 0.16 | -2.04 ± 0.14
AUUAAGCAAUAUUACGAUGA | -0.766 ± 0.11 | -0.613 ± 0.12
CCAAAGCAAUAUUACGUACU | -3.69 ± 0.2 | -2.76 ± 0.27
AGAAAGCAAUAUUACGUAUA | -2.13 ± 0.12 | -1.66 ± 0.13
AGCCAGCAAUAUUACGUGCG | -0.906 ± 0.077 | -0.256 ± 0.087
GGCAAGCAAUAUUACGGUCU | -0.851 ± 0.093 | -0.575 ± 0.1
CAUCAGCAAUAUUACGCUGG | -3.62 ± 0.19 | -2.97 ± 0.2
GAGUAGCAAUAUUACGCAGC | – | -2.81 ± 0.34
AUACAGCAAUAUUACGUACG | -0.772 ± 0.1 | 0.0144 ± 0.12
CCCUAGCAAUAUUACGGUUC | -3.92 ± 0.16 | -2.04 ± 0.21
UCACAGCAAUAUUACGGCCG | -1.24 ± 0.1 | -0.536 ± 0.15
AGACAGCAAUAUUACGACAG | -3.42 ± 0.14 | -0.41 ± 0.12
UCUGAGCAAUAUUACGAACG | -2.04 ± 0.34 | -1.65 ± 0.38
UUAGAGCAAUAUUACGAUCC | -2.97 ± 0.41 | –
UCCGAGCAAUAUUACGUUCG | -2.69 ± 0.49 | -1.78 ± 0.42
GCCAAGCAAUAUUACGUUAC | -2.55 ± 0.12 | -2.39 ± 0.18
AAAAAGCAAUAUUACGAAGC | – | -1.85 ± 0.22
UCCGAGCAAUAUUACGAAGA | -1.62 ± 0.21 | -1.12 ± 0.18
CCGGAGCAAUAUUACGGUGA | -3.8 ± 0.31 | -2.29 ± 0.23
UAUUAGCAAUAUUACGGCCA | -0.0346 ± 0.21 | -0.902 ± 0.16
GUACAGCAAUAUUACGAUAA | -1.95 ± 0.12 | -0.911 ± 0.13
CGAUAGCAAUAUUACGCGCA | -0.97 ± 0.12 | -0.529 ± 0.12

Sequence | self-splicing fitness (ln) (30 °C) | self-splicing fitness (ln) (37 °C)
GCGAAGCAAUAUUACGGUUA | 0.0459 ± 0.22 | -0.871 ± 0.19
AGUAAGCAAUAUUACGAGGU | -2.56 ± 0.18 | -2.89 ± 0.22
CCACAGCAAUAUUACGUGGC | -3.84 ± 0.12 | -2.86 ± 0.12
UUGAAGCAAUAUUACGUAAU | -3.46 ± 0.21 | -1.06 ± 0.13
GAAGAGCAAUAUUACGUACA | -3.17 ± 0.2 | -2.7 ± 0.18
AGUGAGCAAUAUUACGUGCC | -2.42 ± 0.49 | -1.3 ± 0.38
GCACAGCAAUAUUACGCGAC | -1.75 ± 0.13 | -1.18 ± 0.16
GGAGAGCAAUAUUACGCUGA | -2.98 ± 0.19 | -1.36 ± 0.24
ACGAAGCAAUAUUACGACGG | -1.2 ± 0.12 | -0.994 ± 0.094
CGAAAGCAAUAUUACGAAUG | -0.194 ± 0.057 | 0.263 ± 0.08
UGCUAGCAAUAUUACGCUUG | -3.74 ± 0.21 | -0.96 ± 0.13
UGGCAGCAAUAUUACGGCCA | – | -0.836 ± 0.45
GUGAAGCAAUAUUACGUUUU | -4.1 ± 0.14 | -3.88 ± 0.22
CAGAAGCAAUAUUACGUGUC | -3.9 ± 0.25 | -4 ± 0.27
GUCCAGCAAUAUUACGGAAG | -0.697 ± 0.079 | 0.124 ± 0.084
UUCUAGCAAUAUUACGCCAC | – | -2.02 ± 0.46
CGAGAGCAAUAUUACGCAGU | -1.96 ± 0.41 | -2.21 ± 0.47
GGUGAGCAAUAUUACGUUGC | -3.27 ± 0.35 | –
UUGAAGCAAUAUUACGAUUC | -2.33 ± 0.18 | -2.3 ± 0.28
AAUAAGCAAUAUUACGUCCA | -0.808 ± 0.13 | -0.899 ± 0.19
ACCAAGCAAUAUUACGCGCU | -0.723 ± 0.07 | 0.206 ± 0.089
CCAGAGCAAUAUUACGGGCU | -3.24 ± 0.3 | –

Sequence | self-splicing fitness (ln) (30 °C) | self-splicing fitness (ln) (37 °C)
AGUAAGCAAUAUUACGAGGC | -2.59 ± 0.34 | –
CUCGAGCAAUAUUACGUUCA | -3.47 ± 0.35 | –
CCAAAGCAAUAUUACGCAUA | -3.42 ± 0.15 | -2.38 ± 0.17
GUGAAGCAAUAUUACGGUCU | 0.172 ± 0.098 | 0.824 ± 0.096
ACCGAGCAAUAUUACGUGGC | -4.18 ± 0.2 | -2.21 ± 0.18
GUUAAGCAAUAUUACGUGAA | -1.75 ± 0.11 | -1.47 ± 0.16
CCAAAGCAAUAUUACGGCAG | -0.931 ± 0.074 | -0.49 ± 0.11
UCUCAGCAAUAUUACGAUCA | -0.104 ± 0.17 | -0.219 ± 0.17
GGGUAGCAAUAUUACGGGUC | -2.32 ± 0.17 | -1.1 ± 0.18
UCCCAGCAAUAUUACGAACU | -3.52 ± 0.33 | -2.92 ± 0.43
AGGUAGCAAUAUUACGCUGU | -3.789 ± 0.033 | -2.97 ± 0.043
AGAGAGCAAUAUUACGCAAC | – | -1.44 ± 0.2
CGUAAGCAAUAUUACGAUUG | -0.745 ± 0.079 | -0.605 ± 0.11
GGGAAGCAAUAUUACGUACG | -0.982 ± 0.15 | -0.441 ± 0.18
CUAAAGCAAUAUUACGAAGU | -4.21 ± 0.26 | -2.57 ± 0.28
ACACAGCAAUAUUACGCUAA | -2.03 ± 0.1 | -1.19 ± 0.1
UUUAAGCAAUAUUACGGAGA | -2.18 ± 0.21 | -0.727 ± 0.17
CACAAGCAAUAUUACGGUUC | -4.1 ± 0.22 | -2.66 ± 0.19
GACGAGCAAUAUUACGGGGU | – | -2.59 ± 0.25
UAUGAGCAAUAUUACGCUAU | -1.38 ± 0.31 | -1.3 ± 0.23
